In patent publication CN117866087A:

How the values were obtained:
pTau181标准品 [1] = assay: bead sandwich flow cytometry; Tau-2 on beads as capture, PE-labelled anti-pTau181 antibody as detector, 5μg/mL pTau181 standard
pTau181标准品 [2] = assay: bead sandwich flow cytometry; Tau-3 on beads as capture, PE-labelled anti-pTau181 antibody as detector, 5μg/mL pTau181 standard

B1: 实施例3纯化后的重组抗体(重组抗pTau181单克隆抗体) (antibody, mouse IgG1, kappa, V domains shown)
VH: LQQPGSEYARPGASVKLSCKASGYTFTSYWMHWVKQRHGQLLEWIGNIYPGSGSSNYDEKFKSKGTLTVDTSSSTAYMHLSSLTSEDSAVYYCTRSGWLLRDYAMDYWGQGTSVTVSS
VL: DVLMTQTPLSLPVSLGDQASISCRSSQSIVHSNGNTYLEWYLQKPGQSPKLLIYKVSTRFSGVPDRFSGSGSGTDFTLKISRVEAEDLGVYYCFQGSHVPYTFGGGTKLEIKA
modifications: 在实施例4中偶联藻红蛋白荧光素(方案1)或偶联微球(方案2)
pTau181标准品 [1]
  荧光信号强度: 343000
pTau181标准品 [2]
  荧光信号强度: 420000
